Measured values taken from patent US20190374506A1 (BETH ISREAL DEACONESS MEDICAL CENTER, published 2019).

Experiments:
[1] = biological target: T1, Flag-WWP1 ΔWW domain (deletion 341-547) (Homo sapiens (Human), UniProt Q9H0M0 1-922); test: immunoprecipitation and western blot, 293 cells (FIG. 4E)
T1 construct: The two kept ranges are counted on the 922-residue WWP1 entry; not shown: Flag tag
T1 sequence: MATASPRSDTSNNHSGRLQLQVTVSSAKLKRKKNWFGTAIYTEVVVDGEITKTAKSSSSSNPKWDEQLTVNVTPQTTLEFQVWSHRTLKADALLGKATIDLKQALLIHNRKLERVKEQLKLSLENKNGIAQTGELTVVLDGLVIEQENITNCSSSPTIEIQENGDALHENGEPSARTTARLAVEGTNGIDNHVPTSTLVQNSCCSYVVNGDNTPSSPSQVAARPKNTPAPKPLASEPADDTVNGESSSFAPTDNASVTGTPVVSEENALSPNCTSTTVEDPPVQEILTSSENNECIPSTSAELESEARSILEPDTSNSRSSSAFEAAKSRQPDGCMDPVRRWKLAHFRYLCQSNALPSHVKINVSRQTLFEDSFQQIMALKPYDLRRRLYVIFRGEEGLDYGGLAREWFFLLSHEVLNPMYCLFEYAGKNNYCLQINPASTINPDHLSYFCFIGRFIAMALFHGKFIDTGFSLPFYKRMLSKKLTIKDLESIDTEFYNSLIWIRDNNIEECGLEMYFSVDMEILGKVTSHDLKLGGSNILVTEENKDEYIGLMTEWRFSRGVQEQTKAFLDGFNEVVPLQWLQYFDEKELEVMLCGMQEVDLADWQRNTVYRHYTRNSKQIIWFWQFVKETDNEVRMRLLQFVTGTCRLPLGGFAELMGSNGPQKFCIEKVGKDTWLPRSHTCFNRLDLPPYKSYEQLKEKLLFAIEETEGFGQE
Method: Lysates of 293 cells transfected with indicated constructs were analysed by immunoprecipitation and/or western blot with indicated antibodies.
Western Blotting and Immunoprecipitation. For western blotting, cells were lysed in RIPA buffer (Boston BioProducts) supplemented with protease (Roche) and phosphatase (Roche) inhibitor. Proteins were separated on NuPAGE 4-12% Bis-Tris gradient gels (Invitrogen), transferred to polyvinylidine difluoride membranes (Immobilon P, Millipore) and the blots were probed with the indicated antibodies. For immunoprecipitation, PC3, 293T and MEF cells were transfected with the indicated expression vectors by using LIPOFECTAMIN 2000 (Life Technologies). 24 hours after transfection, cells were lysed in RIPA buffer with protease (Roche) and phosphatase (Roche) inhibitor. 500 μg of total lysates were pre-cleared for 30 minutes at 4° C., and then immunoprecipitated with anti-Myc (Cell Signaling Technology 9B11, 1:500), or anti-PTEN (Cell Signaling Technology 9559, 1:500) antibody overnight at 4° C. The Protein-A or Protein-G sepharose beads (GE Healthcare) were then added and incubated for another 2 hours. The immunoprecipitates were washed with RIPA buffer three times. […]

[2] = biological target: T2, WW domain containing E3 ubiquitin protein ligase 1 (WWP1) (human, UniProt Q9H0M0 1-922, limits assumed); test: anti-PTEN immunoprecipitation from DU145 cells, western blot (FIG. 2B)
T2 construct: also called endogenous WWP1; WW domain-containing protein-1

binding result [1]: no binding
binding result [2]: binds
B1: Phosphatase And Tensin Homolog Deleted On Chromosome Ten (PTEN) (enzyme)
chain: not shown
notes: also called endogenous PTEN; PTEN WT
